Literature values, collected in article PMC10018202.

Experiments:
Cys283 = Cys283 (UniProt position 283, GYILTCPSNLG)
Cys34 = Cys34 (UniProt position 58, QYLQQCPFEDH); assay: chemical modification (thiol-disulfide exchange with 2,2'-dithiodipyridine, per the title of the cited reference); the article calls it 'spectroscopic measurements'; conditions: not stated (the article notes the pKa changes by 1.5 pH units depending on the ionic strength of the buffer)

Substance | pKa (Cys283) | pKa (Cys34)
Creatine kinase (the quoted measurement is most likely on human muscle-type CK; the article's docking target is brain-type CK) (Homo sapiens) | around 5.7 and ∼5.6 | –
Serum albumin (HSA) (Homo sapiens) | – | around 7
